Data published in article PMC4057782, “tRNA synthetase counteracts c-Myc to develop functional vasculature”.

Columns and labels:
SerRS delta T413-V420 = SerRS delta T413-V420 (Homo sapiens, UniProt P49591 1-514, del413-420); experiment: EMSA; binding abolished; EMSA: 20 mM Tris-HCl pH 8.0, 60 mM KCl, 5 mM MgCl2, 0.1 mg/ml BSA, 10 ng/ul poly(dG-dC), 1 mM DTT, 30 min, room temperature; SPR: 10 mM HEPES pH 7.4, 150 mM NaCl, 0.005% P-20; footprint: 20 mM HEPES pH 7.9, 120 mM KCl, 8 mM MgCl2, 0.2 mM EDTA, 0.5 mM DTT, 0.2 mg/ml BSA, 10 ug/ml poly(dG-dC), 5% glycerol, room temperature; conditions: protein: recombinant; chain copies: 2; label: 5' 32P
SerRS delta V2-G14 = SerRS delta V2-G14 (Homo sapiens, UniProt P49591 1-514, del2-14); experiment: as above; conditions: protein: recombinant; chain copies: 2; label: 5' 32P
Chain of SerRS delta V2-G14 (P49591 other isoform, or with tags, fused parts or gaps del2-14 | mutant): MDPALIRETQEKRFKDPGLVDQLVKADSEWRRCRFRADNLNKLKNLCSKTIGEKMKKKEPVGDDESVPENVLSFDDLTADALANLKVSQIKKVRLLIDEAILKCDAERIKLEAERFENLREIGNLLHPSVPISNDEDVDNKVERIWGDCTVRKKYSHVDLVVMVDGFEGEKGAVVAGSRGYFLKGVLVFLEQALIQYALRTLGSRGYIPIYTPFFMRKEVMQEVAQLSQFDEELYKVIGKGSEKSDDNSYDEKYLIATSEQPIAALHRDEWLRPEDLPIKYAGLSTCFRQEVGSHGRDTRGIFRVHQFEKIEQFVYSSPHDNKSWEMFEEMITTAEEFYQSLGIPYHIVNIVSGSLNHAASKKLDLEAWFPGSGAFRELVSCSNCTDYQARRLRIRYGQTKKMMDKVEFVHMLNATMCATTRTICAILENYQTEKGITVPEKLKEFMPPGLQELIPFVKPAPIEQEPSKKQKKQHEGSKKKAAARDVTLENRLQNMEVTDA

Chain of SerRS delta T413-V420 (P49591 other isoform, or with tags, fused parts or gaps del413-420 | mutant): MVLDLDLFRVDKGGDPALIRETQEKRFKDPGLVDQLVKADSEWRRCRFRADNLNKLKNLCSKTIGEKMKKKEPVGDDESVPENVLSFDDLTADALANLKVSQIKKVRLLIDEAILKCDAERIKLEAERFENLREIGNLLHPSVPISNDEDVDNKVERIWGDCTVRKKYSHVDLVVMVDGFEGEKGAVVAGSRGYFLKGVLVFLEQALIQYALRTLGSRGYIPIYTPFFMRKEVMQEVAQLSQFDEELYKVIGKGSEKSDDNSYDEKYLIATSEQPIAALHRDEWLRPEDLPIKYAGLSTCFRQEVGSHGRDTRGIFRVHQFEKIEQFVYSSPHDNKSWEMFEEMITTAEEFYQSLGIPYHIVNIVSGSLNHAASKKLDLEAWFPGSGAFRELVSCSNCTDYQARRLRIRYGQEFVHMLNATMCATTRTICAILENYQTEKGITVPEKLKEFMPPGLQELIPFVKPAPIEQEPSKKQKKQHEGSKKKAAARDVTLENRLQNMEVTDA

B1: VEGFA promoter 27-bp (-62 to -36) (dsDNA)
DNA 1: GGCGGGGCGGAGCCATGCGCCCCCCCC
DNA 2: GGGGGGGGCGCATGGCTCCGCCCCGCC
SerRS delta T413-V420
  binding result: no binding
SerRS delta V2-G14
  binding result: no binding
